One may read the kcat/KM as the second-order rate constant that governs catalysis at low substrate concentration.

In the data set the target is Factor X (FX), P00742.
Sequence of Factor X (FX), P00742 (P00742 whole entry, looked up): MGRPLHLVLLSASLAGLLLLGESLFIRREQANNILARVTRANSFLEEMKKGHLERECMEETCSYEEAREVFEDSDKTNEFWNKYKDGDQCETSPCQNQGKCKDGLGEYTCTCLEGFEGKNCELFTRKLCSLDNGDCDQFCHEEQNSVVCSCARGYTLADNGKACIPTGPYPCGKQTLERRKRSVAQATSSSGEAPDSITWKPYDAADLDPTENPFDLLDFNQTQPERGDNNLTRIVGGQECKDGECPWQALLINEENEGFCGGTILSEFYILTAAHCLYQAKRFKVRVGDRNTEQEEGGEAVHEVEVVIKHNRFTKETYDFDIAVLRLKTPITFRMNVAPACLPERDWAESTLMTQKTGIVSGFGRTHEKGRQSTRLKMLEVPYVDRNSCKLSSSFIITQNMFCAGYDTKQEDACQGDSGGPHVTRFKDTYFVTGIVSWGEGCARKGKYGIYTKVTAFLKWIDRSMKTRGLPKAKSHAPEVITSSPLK

B1: FIXa-K228N/K247N/N249S/R318Y/T343R/R403E/E410N (protein)
chain 1: not shown
chain 2: not shown
Take B1: the KM (nM), FX activation by FIXa in the Xase complex (FVIIIa, PC/PS vesicles, Ca2+), indirect fluorogenic assay with Spectrafluor FXa turned out to be 125 nM.

B2: FIXa-R338E/R403E/E410N (mature FIX numbering) (protein)
chain 1: not shown
chain 2: not shown
As to B2, the “% of WT kcat/KM” value worked out at 411%.

B3: FIXa-K293A/R338A/R403A (mature FIX numbering) (protein)
chain 1: not shown
chain 2: not shown
Turning to B3, the “% of WT kcat/KM” value is given as 53%.

B4: FIXa-K228N/247N/N249S/R318Y/R338E/T343R/E410N (protein)
chain 1: not shown
chain 2: not shown
Regarding B4, the KM (nM), FX activation by FIXa in the Xase complex (FVIIIa, PC/PS vesicles, Ca2+), indirect fluorogenic assay with Spectrafluor FXa was 38.1 nM.

B5: FIXa-R318Y/R338E/R403E (mature FIX numbering) (protein)
chain 1: not shown
chain 2: not shown
B5: the “% of WT kcat/KM” value is 134%.

B6: FIXa-R318Y/T343R/E410N (protein)
chain 1: not shown
chain 2: not shown
In the case of B6, the KM (nM), FX activation by FIXa in the Xase complex (FVIIIa, PC/PS vesicles, Ca2+), indirect fluorogenic assay with Spectrafluor FXa amounted to 52.3 nM.

B7: FIXa-Y155F/R338E/R403E/E410N (mature FIX numbering) (protein)
chain 1: not shown
chain 2: not shown
For the protein B7, the “% of WT kcat/KM” value stood at 401% and the kcat/KM stood at 1.8e+08 M⁻¹ s⁻¹.

B8: FIXa-K293E/R338E/R403E (mature FIX numbering) (protein)
chain 1: not shown
chain 2: not shown
In the case of B8, the “% of WT kcat/KM” value worked out at 36%.

B9: FIXa-K228N/R318Y/R338E/T343R/R403E/E410N (protein)
chain 1: not shown
chain 2: not shown
For B9, the KM (nM), FX activation by FIXa in the Xase complex (FVIIIa, PC/PS vesicles, Ca2+), indirect fluorogenic assay with Spectrafluor FXa was determined as 40.3 nM.

B10: FIXa-K228N/K247N/N249S/R318Y/R338E/T343R/R403E (protein)
chain 1: not shown
chain 2: not shown
Turning to B10, the KM (nM), FX activation by FIXa in the Xase complex (FVIIIa, PC/PS vesicles, Ca2+), indirect fluorogenic assay with Spectrafluor FXa was 44.4 nM.

The values are drawn from patent US11491212.
